Assay results taken from US20060035283A1 (CHILDREN S MEDICAL CENTER, published 2006).

B1: full-length mouse RasGRF1 (other, UniProt P27671 1-1262, looked up)
chain: MQKAIRLNDGHVVTLGLLAQKDGTRKGYLSKRSADNPKWQTKWFALLQNLLFYFESDSSPRPSGLYLLEGSICKRAPSPKRGTSSKESGEKQQHYFTVNFSNDSQKTLELRTEDAKDCDEWVAAIARASYKILATEHEALMQKYLHLLQVVETEKTVAKQLRQQLEDGEVEIERLKTEVTITNLIKDNDRIQSSNKAGSADDEDSDIKKIKKVQSFLRGWLCRRKWKNIIQDYIRSPHADSMRKRNQVVFSMLEAEAEYVQQLHILVNNFLRPLRMAASSKKPPITHDDVSSIFLNSETIMFLHQIFYQGLKARISSWPTLVLADLFDILLPMLNIYQEFVRNHQYSLQILAHCKQNRDFDKLLKQYEAKPDCEERTLETFLTYPMFQIPRYILTLHELLAHTPHEHVERNSLDYAKSKLEELSRIMHDEVSETENIRKNLAIERMITEGCEILLDTSQTFVRQGSLMQMSLSEKSKSSRGRLGSLSTKKEGERQCFLFSKHLIICTRGSGGKLHLTKNGVISLIDCTLLDEPENLDDEAKGAGPEIEHLEFKIGVEPKDSLPFTVILVASTRQEKAAWTSDIIQCVDNIRCNGLMMNAFEENSKVTVPQMIKSDASLYCDDVDIRFSKTMNSCKVLQIRYASVERLLERLTDLRFLSIDFLNTFLHSYRVFTNAMVVLDKLINIYRKPMSAIPARSLELLFSSSHNAKLLYGDAPKSPRASRKFSSPPPLAIGTSSPSRRRKLSLNIPIITGGKALELASLGCSSDSYANIHSPISPFGKTTLDTGKLCMASSLPKTPEEIDVPATIPEKPGELSASRKHSSDVLKEESEDDQNHSDEDNTEVSPVKSPPTPKSFLNRTITEFPFFNYNNGILMTTCRDLVDNNRSTLSATSAFAIATAGANEGPSNKEVFRRMSLANTGFSSDQRNIDKEFVIRRAATNRVLNVLRHWVTKHTQDFDTDDTLKYRVICFLEEVMHDPDLLTQERKAAANIIRTLTLEETTEQHSMLEEVILMTEGVKTEPFENHPALEIAEQLTLLDHLVFKSIPYEEFFGQGWMKAEKYERTPYIMKTTKHFNHVSNFIASEIIRNEDISARASAIEKWVAVADICRCLHNYNAVLEITSSINRSAIFRLKKTWLKVSKQTKSLLDKLQKLVSSDGRFKNLRESLRNCDPPCVPYLGMYLTDLVFIEEGTPNYTEDGLVNFSKMRMISHIIREIRQFQQTTYKIDPQPKVIQYLLDESFMLDEESLYESSLLIEPKLPT
notes: Full-length; also called in vitro translated RasGRF1; mouse RasGRF1 in pcDNA3

Key:
[1] = target: T1, GFP rat NR2A (expressed in HEK293T cells) (rat, UniProt Q00959 23-1464); assay: co-immunoprecipitation from co-transfected HEK293T cells
T1 construct: whole, on cells; not shown: GFP
Method: Transfected cells were solubilized in lysis buffer (100 mM Tris-Cl [pH 8.5], 500 mM NaCl, 1% Triton X-100) supplemented with corn plete protease inhibitor (Roche) and immunoprecipitated with NR2B (Santa Cruz, sc-9057), NR1, or NR2A (Chemicon) antibody (5 μg/ml), washed with lysis buffer, separated on SDS gel, and blotted on PVDF. Blots were probed with anti-RasGRF1 (Santa Cruz) and the appropriate NR subunit antibody. 6- to 8-week-old rat brain P2 microsomes were isolated and solubilized as described (Luo, J., et al. (1997) Mol. Pharmacol. 51, 79-86). 80 μg of solubilized protein were immunoprecipitated with NR2B, RasGRF1, or pooled rabbit IgG, and immunoprecipitated proteins were probed on Western blot with RasGRF1 and NR2B antibodies. All immunoprecipitation experiments were only taken as valid if repeated 3-5 times with similar results. Routine negative controls with antigen pre-absorption were carried out for antibodies used in immunoprecipitation experiments. Also, all immunoprecipitating antibodies were tested for the cross-reactivity with in vitro translated co-immunoprecipitated molecules.

[2] = target: T2, in vitro translated full-length NR2B (Rattus norvegicus (Rat), UniProt Q00960 1-1482, limits assumed); assay: co-immunoprecipitation of in vitro translated proteins with anti-HA
T2 construct: Full-length, 35S-labelled, translated in vitro
Method: For in vitro binding experiments, equimolar amounts of in vitro translated ³⁵S-labeled proteins (calculated from radioactivity of the excised protein band and cysteine content in the specific fragment) were incubated with a 3-fold molar excess of translated RasGRF1 for 30 min at 30° C., diluted with RIPA buffer, and immunoprecipitated with anti-HA-agarose (Santa Cruz). In competition experiments, RasGRF1 and NR2B were immunoprecipitated for 2 hr at 4° C. from solubilized rat brain microsomes in the presence of 10 μM NusA, 10 μM NusA-RasGRF1-BD, or 5 μM NusA-NR2B-BD.

[3] = target: B1; assay: co-immunoprecipitation of in vitro translated proteins with AU1 antibody

T2 sequence (Q00960 other isoform, or with tags, fused parts or gaps limits assumed): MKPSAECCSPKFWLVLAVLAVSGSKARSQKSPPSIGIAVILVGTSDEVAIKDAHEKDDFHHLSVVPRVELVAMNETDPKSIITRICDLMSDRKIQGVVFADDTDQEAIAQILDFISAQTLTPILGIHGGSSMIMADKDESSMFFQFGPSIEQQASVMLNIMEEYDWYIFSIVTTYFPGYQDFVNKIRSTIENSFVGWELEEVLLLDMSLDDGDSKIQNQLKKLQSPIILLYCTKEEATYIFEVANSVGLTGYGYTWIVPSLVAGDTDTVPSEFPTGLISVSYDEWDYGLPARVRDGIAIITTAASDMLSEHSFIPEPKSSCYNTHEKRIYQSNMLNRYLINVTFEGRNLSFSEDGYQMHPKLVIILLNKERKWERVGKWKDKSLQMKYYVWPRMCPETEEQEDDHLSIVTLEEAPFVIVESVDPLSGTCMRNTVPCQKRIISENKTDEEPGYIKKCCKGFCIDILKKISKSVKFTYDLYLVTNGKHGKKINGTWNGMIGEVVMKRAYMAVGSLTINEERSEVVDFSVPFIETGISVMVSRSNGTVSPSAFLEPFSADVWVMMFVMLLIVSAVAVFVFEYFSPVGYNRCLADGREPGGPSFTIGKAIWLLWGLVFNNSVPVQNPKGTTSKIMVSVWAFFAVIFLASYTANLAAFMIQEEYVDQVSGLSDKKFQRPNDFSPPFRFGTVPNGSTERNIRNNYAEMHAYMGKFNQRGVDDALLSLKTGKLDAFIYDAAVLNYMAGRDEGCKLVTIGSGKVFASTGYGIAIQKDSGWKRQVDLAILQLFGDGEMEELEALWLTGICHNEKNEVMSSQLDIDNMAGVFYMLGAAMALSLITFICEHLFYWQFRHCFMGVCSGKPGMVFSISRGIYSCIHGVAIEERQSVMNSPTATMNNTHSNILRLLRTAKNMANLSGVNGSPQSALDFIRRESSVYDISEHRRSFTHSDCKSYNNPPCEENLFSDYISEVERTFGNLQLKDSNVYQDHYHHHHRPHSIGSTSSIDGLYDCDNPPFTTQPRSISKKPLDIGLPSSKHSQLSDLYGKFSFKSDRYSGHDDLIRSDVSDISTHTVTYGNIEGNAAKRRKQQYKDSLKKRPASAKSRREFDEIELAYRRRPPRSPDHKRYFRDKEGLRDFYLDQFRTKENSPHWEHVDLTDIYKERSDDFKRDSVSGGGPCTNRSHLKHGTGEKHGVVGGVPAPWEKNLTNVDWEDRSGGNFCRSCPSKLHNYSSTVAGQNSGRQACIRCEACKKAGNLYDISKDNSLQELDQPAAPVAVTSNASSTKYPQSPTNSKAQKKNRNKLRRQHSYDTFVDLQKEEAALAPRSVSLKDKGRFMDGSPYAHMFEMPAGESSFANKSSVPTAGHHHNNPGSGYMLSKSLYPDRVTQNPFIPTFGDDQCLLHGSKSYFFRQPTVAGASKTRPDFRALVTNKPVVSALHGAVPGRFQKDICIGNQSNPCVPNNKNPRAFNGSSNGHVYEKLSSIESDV
T1 sequence (Q00959 23-1464): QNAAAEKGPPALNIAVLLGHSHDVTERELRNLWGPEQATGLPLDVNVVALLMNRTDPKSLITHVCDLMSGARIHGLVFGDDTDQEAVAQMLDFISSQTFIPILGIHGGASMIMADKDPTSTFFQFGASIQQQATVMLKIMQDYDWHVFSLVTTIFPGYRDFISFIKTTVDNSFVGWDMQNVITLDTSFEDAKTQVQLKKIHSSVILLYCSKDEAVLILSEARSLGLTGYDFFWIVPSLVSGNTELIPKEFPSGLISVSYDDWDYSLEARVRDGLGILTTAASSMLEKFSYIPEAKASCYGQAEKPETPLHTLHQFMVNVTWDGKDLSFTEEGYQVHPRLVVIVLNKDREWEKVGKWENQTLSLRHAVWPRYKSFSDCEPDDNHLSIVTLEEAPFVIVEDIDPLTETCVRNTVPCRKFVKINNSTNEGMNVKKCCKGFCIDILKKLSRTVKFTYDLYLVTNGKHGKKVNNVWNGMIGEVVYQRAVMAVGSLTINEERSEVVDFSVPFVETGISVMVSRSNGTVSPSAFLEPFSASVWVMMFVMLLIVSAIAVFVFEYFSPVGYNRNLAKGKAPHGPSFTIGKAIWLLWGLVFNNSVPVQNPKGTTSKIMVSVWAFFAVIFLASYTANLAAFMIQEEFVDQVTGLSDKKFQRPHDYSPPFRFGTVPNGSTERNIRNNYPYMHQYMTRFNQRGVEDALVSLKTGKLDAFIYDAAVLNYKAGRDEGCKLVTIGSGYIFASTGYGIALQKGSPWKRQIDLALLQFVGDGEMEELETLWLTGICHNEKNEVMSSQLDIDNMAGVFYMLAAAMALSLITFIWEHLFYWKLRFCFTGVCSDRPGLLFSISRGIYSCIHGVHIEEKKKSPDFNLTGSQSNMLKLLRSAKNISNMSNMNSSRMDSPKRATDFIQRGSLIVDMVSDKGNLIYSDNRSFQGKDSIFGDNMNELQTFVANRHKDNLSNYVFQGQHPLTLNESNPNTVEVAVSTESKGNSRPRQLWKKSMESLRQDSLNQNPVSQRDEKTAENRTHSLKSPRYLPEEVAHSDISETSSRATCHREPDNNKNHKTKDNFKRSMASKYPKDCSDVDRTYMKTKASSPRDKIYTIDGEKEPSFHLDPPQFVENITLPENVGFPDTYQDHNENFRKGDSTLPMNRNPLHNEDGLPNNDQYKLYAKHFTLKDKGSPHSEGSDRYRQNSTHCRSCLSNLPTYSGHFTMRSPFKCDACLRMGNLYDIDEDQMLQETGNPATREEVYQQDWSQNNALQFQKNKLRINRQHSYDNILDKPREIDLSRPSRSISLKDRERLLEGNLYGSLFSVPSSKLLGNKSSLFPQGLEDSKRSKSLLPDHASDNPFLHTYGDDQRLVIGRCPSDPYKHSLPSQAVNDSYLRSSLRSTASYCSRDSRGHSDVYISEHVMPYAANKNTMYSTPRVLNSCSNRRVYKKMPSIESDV

binding result [2]	other results	Binder
–	binding result [1]: no binding	B1
no binding	–	HA-tagged RasGRF1 fragment, amino acids 1-720 (other, In vitro translated, 35S-labelled; also called N-terminal portion of RasGRF1; not shown: HA tag encoded by the 5' primer) MQKAIRLNDGHVVSLGLLAQRDGTRKGYLSKRSSDNPKWQTKWFALLQNLLFYFESDSSSRPSGLYLLEGSICKRMPSPKRGTSSKESDKQHHYFTVNFSNDSQKSLELRTDDSKDCDEWVAAIARASYKILATEHEALMQKYLHLLQVVETEKTVAKQLRQQLEDGEVEIERLKAEIANLIKDNERIQSNQLVAPEDEDSDIKKIKKVQSFLRGWLCRRKWKNIIQDYIRSPHADSMRKRNQVVFSMLEAEAEYVQQLHILVNNFLRPLRMAASSKKPPITHDDVSSIFLNSETIMFLHQIFYQGLKARIASWPTLVLADLFDILLPMLNIYQEFVRNHQYSLQILAHCKQNRDFDKLLKQYEAKPDCEERTLETFLTYPMFQIPRYILTLHELLAHTPHEHVERNSLDYAKSKLEELSRVMHDEVSETENIRKNLAIERMITEGCEILLDTSQTFVRQGSLIQVPMSEKGKINKGRLGSLSLKKEGERQCFLFSKHLIICTRGSGSKLHLTKNGVISLIDCTLLDDPENMDDDGKGQEVDHLDFKIWVEPKDSPPFTVILVASSRQEKAAWTSDIIQCVDNIRCNGLMMNAFEENSKVTVPQMIKSDASLYCDDVDIRFSKTMNSCKVLQIRYASVERLLERLTDLRFLSIDFLNTFLHSYRVFTDAVVVLDKLISIYKKPITAIPARSLELLFSSSHNTKLLYGDAPKSPRASRKFS
no binding	–	HA-tagged RasGRF1 fragment, amino acids 714-841 (other, In vitro translated, 35S-labelled; not shown: HA tag encoded by the 5' primer) RASRKFSSPPPLAIGTSSPVRRRKLSLNIPIITGGKALELASLGCPSDGYTNIHSPISPFGKTTLDTSKLCVASSLTRTPEEIDMTTLEESSGFRKPTSDILKEESDDDQSDVDDTEVSPPTPKSFRN
no binding	–	HA-tagged RasGRF1 fragment, amino acids 835-913 (other, In vitro translated, 35S-labelled; not shown: HA tag encoded by the 5' primer) TPKSFRNRITQEFPLFNYNSGIMMTCRDLMDSNRSPLSATSAFAIATAGANESPANKEIYRRMSLANTGYSSDQRNIDK
–	binding result [3]: no binding	AU1-tagged NR2B fragment, amino acids 1136-1310 (other, In vitro translated, 35S-labelled; also called distal portion of the bait; not shown: AU1 tag encoded by the 5' primer) QFRTKENSPHWEHVDLTDIYKERSDDFKRDSVSGGGPCTNRSHLKHGTGEKHGVVGGVPAPWEKNLTNVDWEDRSGGNFCRSCPSKLHNYSSTVAGQNSGRQACIRCEACKKAGNLYDISKDNSLQELDQPAAPVAVTSNASSTKYPQSPTNSKAQKKNRNKLRRQHSYDTFVDL
